Data published in patent US20160185837A1 (AstraZeneca / MedImmune, published 2016).
Positions count from the first letter of the chain named.

B1: IP273 (Fc fusion)
chain: YSEGTFTSDYSKLLEEEAVRLFIEWLVKGPAAAGGSGSTASSGSGSATGGGGAATHTCPPC
B2: IP274 (Fc fusion)
chain: YSEGTFTSDYSKLLEKEAVRLFIEWLLKGPGGGGGSGGGGSGGGGSGGGGSATHTCPPC
B3: IP279 (Fc fusion)
chain: YSEGTFTSDYSKLLEEEAVRLFIEWLVKGPSSGAPPPSGGGGGSGGGGSGGGGSGGGGSATHTCPPC
B4: IP278 (Fc fusion)
chain: YSEGTFTSDYSKLLEEEAVRLFIEWLVKGPPSSGAPPPSGGGGGSGGGGSGGGGSGGGGSATHTCPPC
B5: IP295 (Fc fusion)
chain: B4 chain with V27L, K28A, P30G
B6: IP280 (Fc fusion)
chain: B4 chain with P30G
B7: IP296 (Fc fusion)
chain: YSEGTFTSDYSKLLEEEAVRCFIEWLVKGGPSSGAPPCSGGGGGGGGGGGGGGGGGGGGGGGGACPPC

Columns and labels:
Experiment in all cases: cell-based or functional assay
mouse GLP-1 receptor = molecular target: T1, mouse GLP-1 receptor (mouse, UniProt O35659 22-463)
T1 sequence (looked up): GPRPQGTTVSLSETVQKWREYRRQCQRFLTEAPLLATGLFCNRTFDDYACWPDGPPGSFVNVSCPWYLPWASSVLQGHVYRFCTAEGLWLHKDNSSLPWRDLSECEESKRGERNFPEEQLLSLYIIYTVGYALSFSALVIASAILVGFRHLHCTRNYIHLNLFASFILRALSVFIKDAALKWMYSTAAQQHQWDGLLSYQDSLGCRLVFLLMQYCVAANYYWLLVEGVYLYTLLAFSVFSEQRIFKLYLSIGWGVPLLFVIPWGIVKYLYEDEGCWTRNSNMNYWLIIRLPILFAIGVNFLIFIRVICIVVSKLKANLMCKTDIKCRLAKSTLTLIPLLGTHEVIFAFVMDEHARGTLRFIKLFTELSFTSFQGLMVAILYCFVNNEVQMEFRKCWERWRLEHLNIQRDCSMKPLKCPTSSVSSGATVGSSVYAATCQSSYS

rat GIP receptor = molecular target: T2, rat GIP receptor (rat, UniProt P43219 19-455)
T2 sequence (looked up): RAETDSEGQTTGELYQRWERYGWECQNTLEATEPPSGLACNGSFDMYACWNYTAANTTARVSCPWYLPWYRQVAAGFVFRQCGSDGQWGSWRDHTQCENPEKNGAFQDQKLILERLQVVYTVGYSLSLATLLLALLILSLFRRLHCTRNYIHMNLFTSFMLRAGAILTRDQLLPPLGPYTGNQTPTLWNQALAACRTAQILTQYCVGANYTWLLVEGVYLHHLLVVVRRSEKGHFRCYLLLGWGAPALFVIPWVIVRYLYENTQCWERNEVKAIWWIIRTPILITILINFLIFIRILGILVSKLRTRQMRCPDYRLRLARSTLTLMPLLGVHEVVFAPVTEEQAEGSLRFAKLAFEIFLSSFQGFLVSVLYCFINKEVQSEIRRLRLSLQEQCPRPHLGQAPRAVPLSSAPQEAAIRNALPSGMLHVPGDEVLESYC

mouse GIP receptor = molecular target: T3, mouse GIP receptor (mouse, UniProt Q0P543 19-460)
T3 sequence (looked up): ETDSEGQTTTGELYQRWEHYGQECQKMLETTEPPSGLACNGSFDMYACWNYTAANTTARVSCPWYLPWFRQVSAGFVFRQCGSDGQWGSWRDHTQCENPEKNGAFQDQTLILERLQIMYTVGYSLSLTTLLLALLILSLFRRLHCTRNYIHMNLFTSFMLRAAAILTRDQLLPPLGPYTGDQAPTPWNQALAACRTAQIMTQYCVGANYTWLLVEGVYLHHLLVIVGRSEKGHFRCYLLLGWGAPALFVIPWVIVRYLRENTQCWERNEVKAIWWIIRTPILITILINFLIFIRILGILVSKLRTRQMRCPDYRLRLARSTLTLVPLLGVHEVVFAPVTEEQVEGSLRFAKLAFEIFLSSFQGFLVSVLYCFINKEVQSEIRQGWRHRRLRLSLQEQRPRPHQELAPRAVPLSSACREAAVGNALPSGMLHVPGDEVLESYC

rat GLP-1 receptor = molecular target: T4, rat GLP-1 receptor (rat, UniProt P32301 22-463)
T4 sequence (looked up): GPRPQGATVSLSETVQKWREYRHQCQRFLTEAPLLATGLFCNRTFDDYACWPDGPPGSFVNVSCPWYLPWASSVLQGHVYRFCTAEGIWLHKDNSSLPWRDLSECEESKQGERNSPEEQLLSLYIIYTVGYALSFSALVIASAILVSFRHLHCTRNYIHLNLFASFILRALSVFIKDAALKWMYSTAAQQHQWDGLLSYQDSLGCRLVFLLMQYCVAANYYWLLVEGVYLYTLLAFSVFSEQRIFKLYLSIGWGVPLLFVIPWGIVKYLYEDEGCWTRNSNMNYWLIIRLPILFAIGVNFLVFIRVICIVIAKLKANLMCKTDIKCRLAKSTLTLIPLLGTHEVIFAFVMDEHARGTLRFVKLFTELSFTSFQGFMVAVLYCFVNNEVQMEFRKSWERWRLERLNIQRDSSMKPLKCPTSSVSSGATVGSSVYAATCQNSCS

human glucagon receptor = human glucagon receptor (human, UniProt P47871 26-477)
human GIP receptor = molecular target: T5, human GIP receptor (human, UniProt P48546 22-466)
T5 sequence (looked up): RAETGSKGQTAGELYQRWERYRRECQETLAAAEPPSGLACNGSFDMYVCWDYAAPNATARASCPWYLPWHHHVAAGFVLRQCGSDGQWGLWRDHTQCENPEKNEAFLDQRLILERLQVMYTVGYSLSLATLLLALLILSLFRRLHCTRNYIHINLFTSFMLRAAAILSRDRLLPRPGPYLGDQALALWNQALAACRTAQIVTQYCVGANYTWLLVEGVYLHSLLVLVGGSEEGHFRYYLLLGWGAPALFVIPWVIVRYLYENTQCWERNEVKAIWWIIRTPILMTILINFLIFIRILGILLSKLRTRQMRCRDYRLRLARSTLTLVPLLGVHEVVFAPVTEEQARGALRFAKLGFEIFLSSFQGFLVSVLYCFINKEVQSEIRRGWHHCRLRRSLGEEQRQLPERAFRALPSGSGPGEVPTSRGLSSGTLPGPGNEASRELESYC

human GLP-1 receptor = human GLP-1 receptor (human, UniProt P43220 24-463)

Binder	cAMP EC50 (mouse GLP-1 receptor) [nM]	cAMP EC50 (rat GIP receptor) [nM]	cAMP EC50 (mouse GIP receptor) [nM]	cAMP EC50 (rat GLP-1 receptor) [nM]	cAMP EC50 (human glucagon receptor) [nM]	cAMP EC50 (human GIP receptor) [nM]	cAMP EC50 (human GLP-1 receptor) [nM]	cAMP EC50, Batch 2 (human glucagon receptor) [nM]	cAMP EC50, Batch 2 (human GIP receptor) [nM]	cAMP EC50, Batch 2 (human GLP-1 receptor) [nM]	cAMP EC50, Batch 3 (human glucagon receptor) [nM]	cAMP EC50, Batch 3 (human GIP receptor) [nM]	cAMP EC50, Batch 3 (human GLP-1 receptor) [nM]	also measured
B1	0.19	0.09	85	0.02	670	0.0084	0.1	–	–	–	–	–	–	–
B2	1.2	0.028	1	0.057	38	0.017	0.36	30	0.014	0.2	–	–	–	–
B3	0.22	0.097	43	0.024	170	0.01	0.1	–	–	–	–	–	–	–
B4	0.32	0.13	85	0.026	78	0.011	0.13	–	–	–	–	–	–	–
B5	0.35	0.041	0.66	0.023	41	0.0043	0.091	32	0.012	0.14	23	0.0086	0.15	cAMP EC50, Batch 2 (mouse GLP-1 receptor): 0.241 nM; cAMP EC50, Batch 3 (mouse GLP-1 receptor): 0.34 nM; cAMP EC50, Batch 2 (rat GIP receptor): 0.0658 nM; cAMP EC50, Batch 3 (rat GIP receptor): 0.025 nM; cAMP EC50, Batch 2 (mouse GIP receptor): 1.2 nM; cAMP EC50, Batch 3 (mouse GIP receptor): 0.571 nM; cAMP EC50, Batch 2 (rat GLP-1 receptor): 0.018 nM; cAMP EC50, Batch 3 (rat GLP-1 receptor): 0.0286 nM
B6	0.21	0.046	8.8	0.027	520	0.0056	0.077	270	0.0045	0.058	280	0.0064	0.08	–
B7	1.4	0.46	110	0.055	> 1120	0.018	0.57	> 784	0.021	0.39	> 4490	0.014	0.37	cAMP EC50, Batch 2 (mouse GLP-1 receptor): 0.6 nM; cAMP EC50, Batch 4 (mouse GLP-1 receptor): 0.64 nM; cAMP EC50, Batch 4 (rat GIP receptor): 0.14 nM; cAMP EC50, Batch 2 (mouse GIP receptor): 55 nM; cAMP EC50, Batch 4 (mouse GIP receptor): 65 nM; cAMP EC50, Batch 2 (rat GLP-1 receptor): 0.028 nM; cAMP EC50, Batch 4 (rat GLP-1 receptor): 0.027 nM; cAMP EC50, Batch 4 (human glucagon receptor): 6700 nM; cAMP EC50, Batch 4 (human GIP receptor): 0.011 nM; cAMP EC50, Batch 4 (human GLP-1 receptor): 0.29 nM
